What was measured:
HER3:Fc mutant C481R = biological target: T1, HER3:Fc mutant C481R (human, UniProt P21860 20-643); experiment: HER3:Fc mutant ligand binding screen
T1 construct: extracellular domain

HER3:Fc mutant D343H = biological target: T2, HER3:Fc mutant D343H (human, UniProt P21860 20-643); experiment: HER3:Fc mutant ligand binding screen
T2 construct: extracellular domain

HER3:Fc mutant S18T = biological target: T3, HER3:Fc mutant S18T (human, UniProt P21860 20-643); experiment: HER3:Fc mutant ligand binding screen
T3 construct: extracellular domain

HER3:Fc mutant G563Q = biological target: T4, HER3:Fc mutant G563Q (human, UniProt P21860 20-643); experiment: HER3:Fc mutant ligand binding screen
T4 construct: extracellular domain

HER3:Fc mutant Y436L = biological target: T5, HER3:Fc mutant Y436L (human, UniProt P21860 20-643); experiment: HER3:Fc mutant ligand binding screen
T5 construct: extracellular domain

HER3:Fc mutant F96L = biological target: T6, HER3:Fc mutant F96L (human, UniProt P21860 20-643); experiment: HER3:Fc mutant ligand binding screen
T6 construct: extracellular domain

HER3:Fc mutant H565E = biological target: T7, HER3:Fc mutant H565E (human, UniProt P21860 20-643); experiment: HER3:Fc mutant ligand binding screen
T7 construct: extracellular domain

HER3:Fc mutant V19Q = biological target: T8, HER3:Fc mutant V19Q (human, UniProt P21860 20-643); experiment: HER3:Fc mutant ligand binding screen
T8 construct: extracellular domain

HER3:Fc mutant D343L = biological target: T9, HER3:Fc mutant D343L (human, UniProt P21860 20-643); experiment: HER3:Fc mutant ligand binding screen
T9 construct: extracellular domain

HER3:Fc mutant N103K = biological target: T10, HER3:Fc mutant N103K (human, UniProt P21860 20-643); experiment: HER3:Fc mutant ligand binding screen
T10 construct: extracellular domain

HER3:Fc mutant A439D = biological target: T11, HER3:Fc mutant A439D (human, UniProt P21860 20-643); experiment: HER3:Fc mutant ligand binding screen
T11 construct: extracellular domain

HER3:Fc mutant D325N = biological target: T12, HER3:Fc mutant D325N (human, UniProt P21860 20-643); experiment: HER3:Fc mutant ligand binding screen
T12 construct: extracellular domain

HER3:Fc mutant K415S = biological target: T13, HER3:Fc mutant K415S (human, UniProt P21860 20-643); experiment: HER3:Fc mutant ligand binding screen
T13 construct: extracellular domain

HER3:Fc mutant D343I = biological target: T14, HER3:Fc mutant D343I (human, UniProt P21860 20-643); experiment: HER3:Fc mutant ligand binding screen
T14 construct: extracellular domain

HER3:Fc mutant D343F = biological target: T15, HER3:Fc mutant D343F (human, UniProt P21860 20-643); experiment: HER3:Fc mutant ligand binding screen
T15 construct: extracellular domain

HER3Y246A:Fc = biological target: T16, HER3Y246A:Fc (human, UniProt P21860 20-643); experiment: HER3:Fc mutant ligand binding screen
T16 construct: extracellular domain; Screened as an Fc fusion homodimer in conditioned medium

HER3:Fc mutant L102S = biological target: T17, HER3:Fc mutant L102S (human, UniProt P21860 20-643); experiment: HER3:Fc mutant ligand binding screen
T17 construct: extracellular domain

HER3:Fc mutant L48Y = biological target: T18, HER3:Fc mutant L48Y (human, UniProt P21860 20-643); experiment: HER3:Fc mutant ligand binding screen
T18 construct: extracellular domain

HER3:Fc mutant S438T = biological target: T19, HER3:Fc mutant S438T (human, UniProt P21860 20-643); experiment: HER3:Fc mutant ligand binding screen
T19 construct: extracellular domain

RB200 [1] = biological target: T20, RB200 (human, UniProt P00533 25-645; P21860 20-643); experiment: Eu-NRG1-β saturation binding (DELFIA), purified heterodimer immobilised on anti-human Fc plate
T20 construct: extracellular domain; Purified over Ni-Sepharose, so a His tag is likely on one chain, but none is described; also called parent heterodimer RB200; EGFR/HER3 heterodimer
Method: (§1) Plates were incubated at RT for 2 hrs and then rinsed 3 times with DELFIA wash buffer. […] The plates were incubated at RT for 2 hrs followed by three quick rinse with ice-cold Delfia wash buffer containing0.02% Tween-20. To quantify bound Eu-ligands 130 μl/well of Delfia enhancement solution was added and the plates were read on a fluorescence plate reader (Envision, model 2100, PerkinElmer).

RB200 [2] = biological target: T20, RB200; experiment: 125I-NRG1-β saturation binding, heterodimer immobilised on anti-Fc coated plate
RB200 [3] = biological target: T20, RB200; experiment: displacement of Eu-EGF from immobilised RB200 by unlabeled HB-EGF
Method: as §1

RB242 = biological target: T21, RB242 (human, UniProt P00533 25-645; P21860 20-643); experiment: displacement of Eu-EGF from immobilised RB242 by unlabeled HB-EGF
T21 construct: extracellular domain; purified to about 95% homogeneity; also called optimized hermodulin variant RB242
Method: as §1

B1: NRG1-β (ligand, UniProt Q02297-6 177-241, looked up)
chain: SHLVKCAEKEKTFCVNGGECFMVKDLSNPSRYLCKCPNEFTGDRCQNYVMASFYKHLGIEFMEAE
notes: also called NRG1β1; NRGβ1
HER3:Fc mutant C481R
  binding result: no binding
HER3:Fc mutant D343H
  binding result: no binding
HER3:Fc mutant S18T
  binding result: no binding
HER3:Fc mutant G563Q
  binding result: no binding
HER3:Fc mutant Y436L
  binding result: no binding
HER3:Fc mutant F96L
  binding result: no binding
HER3:Fc mutant H565E
  binding result: no binding
HER3:Fc mutant V19Q
  binding result: no binding
HER3:Fc mutant D343L
  binding result: no binding
HER3:Fc mutant N103K
  binding result: no binding
HER3:Fc mutant A439D
  binding result: no binding
HER3:Fc mutant D325N
  binding result: no binding
HER3:Fc mutant K415S
  binding result: no binding
HER3:Fc mutant D343I
  binding result: no binding
HER3:Fc mutant D343F
  binding result: no binding
HER3Y246A:Fc
  binding result: binds
HER3:Fc mutant L102S
  binding result: no binding
HER3:Fc mutant L48Y
  binding result: no binding
HER3:Fc mutant S438T
  binding result: no binding
RB200 [1]
  Kd: 3.1 nM
RB200 [2]
  Kd: 12.3 nM

B2: HB-EGF (ligand, UniProt Q99075 63-148, looked up)
chain: DLQEADLDLLRVTLSSKPQALATPNKEEHGKRKKKGKGLGKKRDPCLRKYKDFCIHGECKYVKELRAPSCICHPGYHGERCHGLSL
RB200 [3]
  Ki: 20.1 nM
RB242
  Ki: 1.3 nM
